# Data reported in article PMC10426277.
# Molecular target: Peroxiredoxin 4 wildtype, recombinant full-length (human) (UniProt Q13162)
# Test: SPR
# Sequence of Sulfiredoxin (Srx), recombinant full-length (Q9BYN0 whole entry): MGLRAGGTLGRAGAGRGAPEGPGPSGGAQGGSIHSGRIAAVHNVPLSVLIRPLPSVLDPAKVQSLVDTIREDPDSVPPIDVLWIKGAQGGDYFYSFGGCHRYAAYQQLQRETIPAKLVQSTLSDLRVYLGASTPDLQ
substance,measurement,value
"Sulfiredoxin (Srx), recombinant full-length (from UniProt Q9BYN0 1-137) (enzyme)",Kd,3.26 mM
same,koff,0.00166 s⁻¹
same,kon,0.509 M⁻¹ s⁻¹
